The values below come from paper PMC6445466, “Structural determination of the complement inhibitory domain of Borrelia burgdorferi BBK32 provides insight into classical pathway complement evasion by Lyme disease spirochetes” (PLoS Pathogens, 2019).

What is called Kd is the free concentration of one partner at which half of the binding sites on the other are occupied at equilibrium, for simple one-to-one binding. A lower Kd goes with higher affinity. The term koff denotes the rate constant with which the complex falls apart. For orientation: kon means the second-order rate constant of association.

Residue numbers refer to the chain shown, from its start. Names and notes keep the numbering of the source.

For experiment [1], the target named is T1, human C1r, full-length enzyme (human, UniProt P00736 18-705).
T1 sequence: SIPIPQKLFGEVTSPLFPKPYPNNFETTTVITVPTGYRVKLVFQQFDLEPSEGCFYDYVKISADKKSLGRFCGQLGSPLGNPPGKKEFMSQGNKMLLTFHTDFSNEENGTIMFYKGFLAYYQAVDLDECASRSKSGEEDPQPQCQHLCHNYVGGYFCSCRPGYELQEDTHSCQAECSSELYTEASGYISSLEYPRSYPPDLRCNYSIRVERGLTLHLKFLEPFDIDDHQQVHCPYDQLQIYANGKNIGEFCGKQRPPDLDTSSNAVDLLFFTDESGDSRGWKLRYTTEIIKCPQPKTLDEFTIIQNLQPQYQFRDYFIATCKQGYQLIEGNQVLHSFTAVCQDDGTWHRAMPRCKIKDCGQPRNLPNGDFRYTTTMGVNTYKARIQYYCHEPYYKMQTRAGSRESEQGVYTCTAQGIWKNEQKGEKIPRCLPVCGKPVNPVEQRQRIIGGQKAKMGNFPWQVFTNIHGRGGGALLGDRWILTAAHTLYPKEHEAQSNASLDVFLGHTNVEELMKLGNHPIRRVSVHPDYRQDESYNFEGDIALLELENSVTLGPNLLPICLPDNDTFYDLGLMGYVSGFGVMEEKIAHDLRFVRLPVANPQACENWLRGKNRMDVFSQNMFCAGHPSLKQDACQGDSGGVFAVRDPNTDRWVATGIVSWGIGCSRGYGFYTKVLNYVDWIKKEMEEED
In words: cell-based or functional assay.

Experiment [2] addresses T2, human C1r, full-length enzyme (human, UniProt P00736 18-705).
T2 construct: complement C1r, human, 92 kDa, CUB1-EGF-CUB2-CCP1-CCP2-SP; bought as purified full-length enzyme; source: bought: Complement Technology (Tyler, TX), purified
T2 sequence: T1 sequence
In words: SPR; Biacore T200, 25°C; borrelial protein immobilised by amine coupling; C1r as analyte, single-cycle kinetics, five-fold dilution series 1.6 to 1000 nM; HBS-T with 5 mM CaCl2; 1:1 kinetic fit; triplicate. The conditions noted are these: both partners purified. A general note: In SPR one partner is held on a chip, and binding of the other changes the refractive index at the surface.

The target of another experiment is T3, human C1 complex (human, UniProt P02745 23-245; P02746 28-253; P02747 29-245).
T3 construct: C1q subunit A, human; C1q subunit B, human; C1q subunit C, human; complement C1r, human, within the C1r2C1s2 heterotetramer; complement C1s, human, within the C1r2C1s2 heterotetramer; also called first component of complement; source: bought: Complement Technology (Tyler, TX), purified; copies: + + + 2 + 2
In words: SPR; Biacore T200, 25°C; borrelial protein immobilised by amine coupling (CMD200M chip); C1 as analyte, two-fold dilution series 0 to 150 nM, 2 min association, 3 min dissociation; HBS-T (20 mM HEPES pH 7.3, 140 mM NaCl, 0.005% Tween-20) with 5 mM CaCl2; 1:1 kinetic fit; triplicate. The conditions noted are these: both partners purified.

In experiment [3] the target is T4, His-C1r-CCP2-SP (residues 376-705) (human, UniProt P00736 376-705).
T4 construct: complement C1r, human, CCP2-SP domains, residues 376-705 as defined by UniProt P00736
T4 sequence: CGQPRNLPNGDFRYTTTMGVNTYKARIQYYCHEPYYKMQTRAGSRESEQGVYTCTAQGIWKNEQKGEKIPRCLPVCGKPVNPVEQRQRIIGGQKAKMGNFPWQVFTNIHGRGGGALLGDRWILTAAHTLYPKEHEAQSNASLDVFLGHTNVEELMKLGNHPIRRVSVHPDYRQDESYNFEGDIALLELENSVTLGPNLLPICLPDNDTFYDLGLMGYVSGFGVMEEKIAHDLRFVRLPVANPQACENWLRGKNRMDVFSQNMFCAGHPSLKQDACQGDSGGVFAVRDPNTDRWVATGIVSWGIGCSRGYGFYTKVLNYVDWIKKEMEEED
In words: SPR; Biacore T200, 25 °C, BBK32(206-348) immobilised; C1r fragments as analytes, single-cycle as for C1r, 0.8 to 500 nM; 1:1 Langmuir fit. As to conditions: both partners purified.

In experiment [4] the target is T5, C1r_(CCP1-CCP2-SP-auto) (autolytic fragment of human C1r, Leu-300 to Asp-705) (human, UniProt P00736 300-705).
T5 construct: complement C1r, human, residues Leu-300 to Asp-705 by mass spectrometry: last six residues of CUB2 and all of CCP1-CCP2-SP; Runs as one 55 kDa band on non-reducing SDS-PAGE; also called 55 kDa band; autolytic C1r fragment; source: autolytic digestion of bought purified C1r (Complement Tech) overnight at 37 °C; used in the digestion mix (SEC) and purified (SPR)
T5 sequence: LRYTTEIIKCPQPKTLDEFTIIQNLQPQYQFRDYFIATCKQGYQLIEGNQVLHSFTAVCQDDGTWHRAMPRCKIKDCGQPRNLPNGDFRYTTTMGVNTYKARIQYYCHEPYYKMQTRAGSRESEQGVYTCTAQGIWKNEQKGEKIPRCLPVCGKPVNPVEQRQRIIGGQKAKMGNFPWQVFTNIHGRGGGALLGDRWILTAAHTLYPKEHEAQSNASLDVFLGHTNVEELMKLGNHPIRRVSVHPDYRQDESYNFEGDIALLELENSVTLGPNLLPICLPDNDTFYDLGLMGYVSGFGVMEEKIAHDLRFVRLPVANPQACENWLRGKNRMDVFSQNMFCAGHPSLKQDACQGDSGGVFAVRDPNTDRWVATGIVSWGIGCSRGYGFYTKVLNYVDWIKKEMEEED
The experiment is described as above. The conditions noted are these: both partners purified.

The target in experiment [5] is T6, C1r CCP1-CCP2-SP-auto, autolytic fragment of human C1r (Leu-300 to Asp-705) (human, UniProt P00736 300-705).
T6 construct: complement C1r, human, residues Leu-300 to Asp-705 by mass spectrometry: last six residues of CUB2 and the whole of CCP1-CCP2-SP; Migrates as one 55 kDa band on non-reducing SDS-PAGE; also called 55 kDa fragment; source: autolytic digestion of bought C1r (Complement Tech) overnight at 37°C, purified
T6 sequence: T5 sequence
Description: SPR; Biacore T200, 25°C; BBK32(206-348) immobilised by amine coupling; C1r fragments as analytes, single-cycle kinetics as for C1r, 0.8 to 500 nM; 1:1 kinetic fit; triplicate. As to conditions: both partners purified.

The target in experiment [6] is T7, recombinant His-C1r-CCP2-SP (residues 376-705) (human, UniProt P00736 376-705).
T7 construct: complement C1r, human, CCP2-SP domains, residues 376-705 (domains as defined by UniProt P00736); also called rHIS-C1r-CCP2-SP
T7 sequence: T4 sequence
The experiment is described as above. As to conditions: both partners purified.

B1: BGD19-C (residues 206-354, B. garinii strain IP90) (domain or fragment)
chain: SNRYQSYLEGVKYNVDSAIKTITKIYDTYTLFLTKLTQMYSTRLDNLAKAKAKEEAAKFTKEDLEKNFKTLLNYIQVSVKTATNFVYINDTHAKRKLENIETKIKTLIAKIKEKSNLYQAYKAIVRPILLMRDSLKEVQGAIDKNGIWY
As for B1, in experiment [1], the “IC50 of C3b deposition, classical pathway-specific ELISA with normal human serum” value amounted to 32 nM; the “IC50 of MAC deposition, classical pathway-specific ELISA with normal human serum” value came to 35 nM; the “IC50 of classical pathway hemolysis of sensitized sheep red blood cells by human serum; no saturable inhibition up to 1 uM” value was approximately 7600 nM.

B2: BGD19-C (residues 206-354, B. garinii strain IP90) (domain or fragment)
chain: B1 chain
Consider B2, for which, in experiment [2], the Kd was found to be 5.3 nM, the koff was 8.1e-05 s⁻¹ and the kon amounted to 15000 M⁻¹ s⁻¹. In the experiment with human C1 complex, the affinity, expressed as Kd, was 3 nM; the koff was found to be 0.00035 s⁻¹; the kon is 120000 M⁻¹ s⁻¹.

B3: BBK32_((206-348)) (residues 206-348, B. burgdorferi strain B31) (domain or fragment)
chain: SNRYQSYLEGVKYNVDSAIQTITKIYNTYTLFSTKLTQMYSTRLDNFAKAKAKEEAAKFTKEDLEKNFKTLLNYIQVSVKTAANFVYINDTHAKRKLENIEAEIKTLIAKIKEQSNLYEAYKAIVTSILLMRDSLKEVQGIID
notes: BBK32 of Borrelia burgdorferi strain B31, residues 206-348 (lacks six C-terminal residues relative to BBK32-C); The deposited model holds residues 209-348; also called BBK32-C_((206-348)); crystallization construct
For the molecule B3, the Kd stood at 3.9 nM in experiment [3] and 1.5 nM in experiment [4].

B4: BBK32(206-348) (residues 206-348, B. burgdorferi strain B31) (domain or fragment)
chain: B3 chain
notes: BBK32, Borrelia burgdorferi strain B31, residues 206-348 (lacks six C-terminal residues relative to BBK32-C); also called BBK32-C(206-348); source: recombinant, sub-cloned into pT7HMT, purified to homogeneity
For B4, the koff in experiment [5] is 2.6e-05 s⁻¹; in experiment [6], 3.7e-05 s⁻¹; in experiment [2], 9.7e-06 s⁻¹. Also, the kon in experiment [5] is 17000 M⁻¹ s⁻¹; in experiment [6], 9400 M⁻¹ s⁻¹; in experiment [2], 13000 M⁻¹ s⁻¹. The equilibrium dissociation constant (Kd) in experiment [2] was 0.75 nM.

B5: BBK32-C (residues 206-354, B. burgdorferi strain B31) (domain or fragment)
chain: SNRYQSYLEGVKYNVDSAIQTITKIYNTYTLFSTKLTQMYSTRLDNFAKAKAKEEAAKFTKEDLEKNFKTLLNYIQVSVKTAANFVYINDTHAKRKLENIEAEIKTLIAKIKEQSNLYEAYKAIVTSILLMRDSLKEVQGIIDKNGVWY
Regarding B5, in experiment [1], the “IC50 of C3b deposition, classical pathway-specific ELISA with normal human serum” value is 14 nM; the “IC50 of MAC deposition, classical pathway-specific ELISA with normal human serum” value worked out at 13 nM; the “IC50 of classical pathway hemolysis of sensitized sheep red blood cells by human serum” value was found to be 170 nM.

B6: BBK32-C (residues 206-354, B. burgdorferi strain B31) (domain or fragment)
chain: B5 chain
notes: BBK32, Borrelia burgdorferi sensu stricto strain B31, residues 206-354; also called BBK32(206-354); source: recombinant, sub-cloned into pT7HMT, purified to homogeneity
B6: in experiment [2], the Kd amounted to 5.1 nM, the koff is 8.6e-05 s⁻¹ and the kon came to 17000 M⁻¹ s⁻¹.

B7: BXK32-C (BBK32-C E308K-Q319K-E324Q) (domain or fragment, Borrelia burgdorferi strain B31, UniProt O50835 206-354, looked up)
chain: B5 chain with E103K, Q114K, E119Q
notes: BBK32, Borrelia burgdorferi strain B31, residues 206-354 (the limits of BBK32-C) with three residues changed to those of B. garinii BGD19; also called BBK32-E308K-Q319K-E324Q; chimeric BBK32-C; source: recombinant, E. coli codon-optimized synthetic DNA in pT7HMT, purified to homogeneity
In experiment [2], B7 returned a Kd of 7.1 nM, a koff of 0.00016 s⁻¹ and a kon of 22000 M⁻¹ s⁻¹.
